B1: 18I 31L 55L 72A (protein, listed as Rattus norvegicus)
chain: AFDGTWKVDRNENYEKFIEKMGINVVKRKLLAHDNLKLTITQEGNKFTVKESSNLRNIDVVFELGVDFAYSAADGTELTGTWTMEGNKLVGKFKRVDNGKELIAVREISGNELIQTYTYEGVEAKRIFKKE
modifications: PEPTIDE (1)...(131) wild-type rat intestinal fatty acid binding protein
B2: 73T 72A 74F (protein, listed as Rattus norvegicus)
chain: B1 chain with I18M, L31G, L55F, A73T, D74F
modifications: PEPTIDE (1)...(131) wild-type rat intestinal fatty acid binding protein
B3: 55V 73F 72A (protein, listed as Rattus norvegicus)
chain: B1 chain with I18M, L31G, L55V, A73F
modifications: PEPTIDE (1)...(131) wild-type rat intestinal fatty acid binding protein
B4: 18V 31F 73M 72A (protein, listed as Rattus norvegicus)
chain: B1 chain with I18V, L31F, L55F, A73M
modifications: PEPTIDE (1)...(131) wild-type rat intestinal fatty acid binding protein
B5: 38I 74F 72A (protein, listed as Rattus norvegicus)
chain: B1 chain with I18M, L31G, L38I, L55F, D74F
modifications: PEPTIDE (1)...(131) wild-type rat intestinal fatty acid binding protein
B6: 72S 73W 74G (protein, listed as Rattus norvegicus)
chain: B1 chain with I18M, L31G, L55F, A72S, A73W, D74G
modifications: PEPTIDE (1)...(131) wild-type rat intestinal fatty acid binding protein
B7: 74T 72A 73F (protein, listed as Rattus norvegicus)
chain: B1 chain with I18M, L31G, L55F, A73F, D74T
modifications: PEPTIDE (1)...(131) wild-type rat intestinal fatty acid binding protein
B8: 38Y 117A 72A (protein, listed as Rattus norvegicus)
chain: B1 chain with I18M, L31G, L38Y, L55F, Y117A
modifications: PEPTIDE (1)...(131) wild-type rat intestinal fatty acid binding protein
B9: 74S 72A 73F (protein, listed as Rattus norvegicus)
chain: B1 chain with I18M, L31G, L55F, A73F, D74S
modifications: PEPTIDE (1)...(131) wild-type rat intestinal fatty acid binding protein
B10: 73P 72A 74F (protein, listed as Rattus norvegicus)
chain: B1 chain with I18M, L31G, L55F, A73P, D74F
modifications: PEPTIDE (1)...(131) wild-type rat intestinal fatty acid binding protein
B11: 72G 73F 74N (protein, listed as Rattus norvegicus)
chain: B1 chain with I18M, L31G, L55F, A72G, A73F, D74N
modifications: PEPTIDE (1)...(131) wild-type rat intestinal fatty acid binding protein
B12: 18V 31F 55L 72A (protein, listed as Rattus norvegicus)
chain: B1 chain with I18V, L31F
modifications: PEPTIDE (1)...(131) wild-type rat intestinal fatty acid binding protein
B13: 72S 73Q 74A (protein, listed as Rattus norvegicus)
chain: B1 chain with I18M, L31G, L55F, A72S, A73Q, D74A
modifications: PEPTIDE (1)...(131) wild-type rat intestinal fatty acid binding protein
B14: 74Q 72A 73F (protein, listed as Rattus norvegicus)
chain: B1 chain with I18M, L31G, L55F, A73F, D74Q
modifications: PEPTIDE (1)...(131) wild-type rat intestinal fatty acid binding protein
B15: 18I 31V 55V 73V 72A (protein, listed as Rattus norvegicus)
chain: B1 chain with L31V, L55V, A73V
modifications: PEPTIDE (1)...(131) wild-type rat intestinal fatty acid binding protein
B16: 74E 72A 73F (protein, listed as Rattus norvegicus)
chain: B1 chain with I18M, L31G, L55F, A73F, D74E
modifications: PEPTIDE (1)...(131) wild-type rat intestinal fatty acid binding protein

Substitutions are numbered along the chain they refer to.

Consider 16 molecules from patent US20060257938A1, “Method of screening for drugs that block ligand binding to a lipid binding protein” (priority 2005, published 2006).

A short description of one assay: Probe fluorescence ratio response to arachidonic acid relative to ADIFAB2. The assay is classed as binding. The conditions noted are these: arachidonic acid; response relative to ADIFAB2. A digest of the protocol: (§1)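 Each fatty acid's response was expressed relative to ADIFAB2, the rI-FABP-L72A probe, as ΔR/ΔRreference. ΔR is the change in the background-corrected two-wavelength intensity ratio R=Fλ1/Fλ2 from its analyte-free baseline R0. Emission was read near about 420-480 nm for unbound and about 495-580 nm for FFA-bound probe.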
B1: the “DR/DR AA” value was 1.285.

For B2, the “DR/DR AA” value is 0.939.

B3: the “DR/DR AA” value is reported as 0.864.

Take B4: the “DR/DR AA” value was 1.014.

Consider B5, for which the “DR/DR AA” value was determined as 0.787.

For the molecule B6, the “DR/DR AA” value is on record as 1.012.

Take B7: the “DR/DR AA” value came out at 0.852.

Turning to B8, the “DR/DR AA” value was determined as 2.216.

On to B9, for which the “DR/DR AA” value is listed as 0.893.

As for B10, the “DR/DR AA” value turned out to be 1.078.

As for B11, the “DR/DR AA” value is on record as 0.617.

With B12, the “DR/DR AA” value is 0.921.

Consider B13, for which the “DR/DR AA” value was found to be 2.290.

B14: the “DR/DR AA” value amounted to 0.465.

For the molecule B15, the “DR/DR AA” value was 0.632.

In the case of B16, the “DR/DR AA” value is 0.703.

Another assay is described as follows: Probe fluorescence ratio response to linolenic acid relative to ADIFAB2. The assay is classed as binding. To be noted: response relative to ADIFAB2. A digest of the protocol: as §1
As for B1, the “DR/DR LNA” value stood at 1.736.

Consider B2, for which the “DR/DR LNA” value turned out to be 1.661.

On to B3, for which the “DR/DR LNA” value amounted to 1.566.

B4: the “DR/DR LNA” value came out at 1.511.

For B5, the “DR/DR LNA” value was determined as 1.395.

For B6, the “DR/DR LNA” value stood at 1.706.

For B7, the “DR/DR LNA” value turned out to be 1.635.

Take B8: the “DR/DR LNA” value worked out at 1.547.

For B9, the “DR/DR LNA” value was 1.433.

For the molecule B10, the “DR/DR LNA” value is 1.518.

Turning to B11, the “DR/DR LNA” value is 1.367.

Turning to B12, the “DR/DR LNA” value came to 1.180.

Take B13: the “DR/DR LNA” value is given as 2.077.

Regarding B14, the “DR/DR LNA” value is recorded as 1.025.

For B15, the “DR/DR LNA” value came out at 1.179.

For B16, the “DR/DR LNA” value stood at 1.558.

Another assay can be described thus: Probe fluorescence ratio response to palmitic acid relative to ADIFAB2. The assay is classed as binding. The conditions noted are these: response relative to ADIFAB2. A digest of the protocol: as §1
Take B1: the “DR/DR PA” value is given as 1.523.

With B2, the “DR/DR PA” value is 1.632.

B3: the “DR/DR PA” value turned out to be 1.082.

For B4, the “DR/DR PA” value came to 1.395.

In the case of B5, the “DR/DR PA” value turned out to be 1.343.

As for B6, the “DR/DR PA” value amounted to 1.653.

Take B7: the “DR/DR PA” value was 1.150.

As to B8, the “DR/DR PA” value stood at 0.933.

Take B9: the “DR/DR PA” value turned out to be 1.158.

For B10, the “DR/DR PA” value is 1.278.

In the case of B11, the “DR/DR PA” value is 0.456.

For B12, the “DR/DR PA” value came to 1.035.

B13: the “DR/DR PA” value came out at 1.896.

For the molecule B14, the “DR/DR PA” value is given as 0.649.

Regarding B15, the “DR/DR PA” value amounted to 0.974.

As to B16, the “DR/DR PA” value is on record as 1.026.

A further assay is described as follows: Probe fluorescence ratio response to linoleic acid relative to ADIFAB2. The format is binding. The conditions noted are these: response relative to ADIFAB2. A digest of the protocol: as §1
On to B1, for which the “DR/DR LA” value came out at 1.442.

As for B2, the “DR/DR LA” value turned out to be 1.389.

On to B3, for which the “DR/DR LA” value was 1.223.

Regarding B4, the “DR/DR LA” value was determined as 1.296.

In the case of B5, the “DR/DR LA” value is 1.162.

As for B6, the “DR/DR LA” value stood at 1.375.

With B7, the “DR/DR LA” value stood at 1.185.

For B8, the “DR/DR LA” value is 1.869.

On to B9, for which the “DR/DR LA” value was 1.035.

As to B10, the “DR/DR LA” value was 0.838.

As for B11, the “DR/DR LA” value is recorded as 0.454.

For B12, the “DR/DR LA” value was determined as 0.996.

For the molecule B13, the “DR/DR LA” value is recorded as 2.140.

Turning to B14, the “DR/DR LA” value is given as 0.711.

Consider B15, for which the “DR/DR LA” value was 0.853.

For the molecule B16, the “DR/DR LA” value was determined as 1.093.

A further assay in a line: Probe fluorescence ratio response to oleic acid relative to ADIFAB2. The assay is classed as binding. The conditions noted are these: response relative to ADIFAB2. A digest of the protocol:
as §1
As for B1, the “DR/DR OA” value is recorded as 0.759.

As for B2, the “DR/DR OA” value is recorded as 1.161.

B3: the “DR/DR OA” value came to 0.661.

In the case of B4, the “DR/DR OA” value is recorded as 0.794.

In the case of B5, the “DR/DR OA” value is 0.764.

As for B6, the “DR/DR OA” value is reported as 0.970.

In the case of B7, the “DR/DR OA” value is 0.634.

Regarding B8, the “DR/DR OA” value worked out at 1.976.

With B9, the “DR/DR OA” value is reported as 0.630.

B10: the “DR/DR OA” value worked out at 0.868.

For the molecule B11, the “DR/DR OA” value was −0.032.

Turning to B12, the “DR/DR OA” value turned out to be 0.649.

Turning to B13, the “DR/DR OA” value was determined as 1.875.

As for B14, the “DR/DR OA” value turned out to be 0.390.

Regarding B15, the “DR/DR OA” value was 0.448.

Take B16: the “DR/DR OA” value is on record as 0.575.

A further assay in a line: Probe fluorescence ratio response to stearic acid relative to ADIFAB2. The assay is classed as binding. To be noted: response relative to ADIFAB2. A digest of the protocol: as §1
For B1, the “DR/DR SA” value was 0.310.

On to B2, for which the “DR/DR SA” value was 0.519.

For B3, the “DR/DR SA” value is reported as 0.285.

For B4, the “DR/DR SA” value is on record as 0.383.

For B5, the “DR/DR SA” value stood at 0.503.

Consider B6, for which the “DR/DR SA” value was found to be 0.411.

B7: the “DR/DR SA” value is recorded as 0.273.

As for B8, the “DR/DR SA” value turned out to be 1.201.

As to B9, the “DR/DR SA” value is recorded as 0.337.

B10: the “DR/DR SA” value was determined as 0.494.

Turning to B11, the “DR/DR SA” value is given as −0.043.

For the molecule B12, the “DR/DR SA” value was determined as 0.358.

On to B13, for which the “DR/DR SA” value worked out at 1.311.

Regarding B14, the “DR/DR SA” value stood at 0.177.

For the molecule B15, the “DR/DR SA” value was 0.233.

For the molecule B16, the “DR/DR SA” value is 0.251.

The next assay in a line: Probe fluorescence ratio response to palmitoleic acid relative to ADIFAB2. The assay is classed as binding. To be noted: response relative to ADIFAB2. A digest of the protocol:
as §1
On to B1, for which the “DR/DR POA” value is 2.011.

On to B2, for which the “DR/DR POA” value is recorded as 2.450.

As for B3, the “DR/DR POA” value came out at 2.264.

For the molecule B4, the “DR/DR POA” value is 1.538.

With B5, the “DR/DR POA” value was 2.112.

As for B6, the “DR/DR POA” value was 2.422.

Regarding B7, the “DR/DR POA” value came to 2.309.

Consider B8, for which the “DR/DR POA” value is 0.839.

Take B9: the “DR/DR POA” value was 2.413.

As to B10, the “DR/DR POA” value is recorded as 1.776.

Turning to B11, the “DR/DR POA” value is reported as 1.499.

In the case of B12, the “DR/DR POA” value is 1.353.

With B13, the “DR/DR POA” value is 2.293.

For the molecule B14, the “DR/DR POA” value amounted to 1.479.

For the molecule B15, the “DR/DR POA” value is given as 1.236.

Regarding B16, the “DR/DR POA” value was found to be 2.395.
